# Values joined by “and” are separate entries in the source; they are usually repeats but may differ in a detail not shown here. Identical values can stand only once. Marks after values point to notes of the source that are not given here.
# Experiments:
# DBA/2-mated CBA/J mice = assay: Fetal loss in DBA/2-mated CBA/J mice: role of asialoGM1+ NK cells, macrophages and cytokines; format: in vivo, mouse
# From the text: Inbred mice of strains CBA/J and DBA/2 were obtained from Iffa Credo. France C57B1/6J and DBA/2 mice were obtained from the Jackson Laboratories, Bar Harbor, Me. C57B1/6 mice with knockout of the interferon response element IRF-1 were generated as previously described (Duncan, G. S. et al., J. Exp. Med. 184:2043 (1996)) and bred in at the Ontario Cancer Institute, Toronto. CBA/J mice were maintained in the Paris colony under conventional open-top wire cage conditions with food and water ad lib and a 12 hour light-dark cycle. Mice in the Toronto colony were maintained in a barrier facility. Female CBA/J, C57B1/6 or C57B1/6 IRF−/− mice were mated by overnight cohabitation with a DBA/2J male, and the morning of sighting a vaginal plug was defined as day 0.5 of pregnancy.
# Pregnant CBA/J mice were depleted of NK cells by injection of 1 ml rabbit IgG anti-asialoGM1 antibody (Immunocorp, Richmond, Va.) ip on day 6.5 of gestation; phosphate buffered saline (PBS) was used as a control as it has been previously shown to be equivalent to non-immune rabbit IgG (Clark, D. A., Crit. Rev. Immunol. 11:215 (1991)). Macrophage depletion was performed by ip injection of 100 mg/kg silicon dioxide twice a week for 4 weeks prior to mating, as described in Baek, H-S. and J-W. Yoon (J. Virol. 64:5708 (1990)). Affinity-purified rabbit IgG neutralizing antibody to mouse procoagulant (fg12-prothombinase) was prepared as previously described (Ding, J. W. et al., J. Exp. Med. (1997); Dackiw, A. P. B. et al., Arch. Surg. 131:1273 (1996)); the mice were given a ip injection of 200 μl of a 1/50 dilution of a 5.5 mg/ml preparation of anti-prothombinase or control rabbit antibody each day beginning on day 3.5 of gestation. Hormonal support of pregnancy sufficient to replace ovarian function was provided in some experiments by injecting 6.7 ng 17 β-estradiol+1 mg progesterone in 0.1 ml oil im daily beginning on day 4.5 of gestation (Michael, S. D. et al., Biol. Reprod. 12:400 (1975)). One hundred […] of rat monoclonal IgG2b anti-mouse granulocyte antibody RB6-8C5 (Pharmingen) (Stoppacciaro, A. et al., J. Exp. Med. 178:151 (1993)) or isotype control was injected ip on either day 6.5 or on day 8.5 of pregnancy. TNF-α (6 and R&D Systems) 1000 or 2000 units and/or murine recombinant γ-interferon (6 and R&D Systems) 1000 units was injected ip on day 7.5 of pregnancy. On day 13.5 of pregnancy, the mice were sacrificed and the number of resorbing and healthy embryos was counted. In some experiments, the uteri were snap frozen, 5 micron sections were cut, and the tissues were stained with rat monoclonal F4/80 antibody (Caltag, Tebu, France) to macrophages. Briefly, tissue sections were incubated with a 1/30 dilution of F4/80 in PBS for 30 minutes, and binding was detected using peroxidase-streptavidin with biotin-labelled anti-rat IgG2b second antibody (Secrotec) (Kachkache, M. et al., Biol. Reprod. 45:860 (1991)).
# Four to ten mated mice per treatment group were used. The significance of differences in the pooled resorption rate was tested by c^2 of Fisher's Exact test where appropriate.
# [1] = tested on: recalcified platelet-poor normal human plasma; assay: One-stage clotting assay (procoagulant activity, PCA); format: biochemical
# Description: This assay for fg12 prothrombinase was used to directly measure procoagulant activity. High 5 cells infected with recombinant virus expressing the mfg12 fusion protein were subjected to cycles of freeze thawing. They were then assayed for their ability to accelerate the spontaneous clotting time of recalcified platelet-poor normal human plasma as previously described (Levy & Edgington, 1980). Results were quantitated by comparison with serial dilutions of standard rabbit brain thromboplastin. Activities from cells infected with the recombinant virus were compared with those uninfected and wild-type virus infected, and with the purified protein alone. Proteins involved in the coagulation pathway require a phospholipid bilayer for functional activity; therefore purified protein was reconstituted into […] to determine their PCA activity. Additional PCA assays were performed with human plasma deficient in coagulation factors II, V, VII, VIII, X, and XII to determine the nature (factor dependence) of the expressed PCA.
# 125I-prothrombin = assay: Prothrombin cleavage assay; format: biochemical; conditions: FIG. 22
# Description: To determine if the expressed fusion protein acts as a direct prothrombinase, the prothrombin cleavage assay was performed as previously described (Schwartz et al., 1982). 125I-prothrombin was incubated with High 5 cells, both infected or uninfected with the recombinant virus. Purified mfg12 fusion protein was also studied to determine its ability to cleave prothrombin. Human Factor Xa in the presence of Russell's viper venom (RVV) was used as a positive control. Samples were run on 10% SDS-PAGE and analyzed by autoradiography for 125I-prothrombin and their cleavage products.
# [2] = Expt 1, anti-asialoGM1 pretreated (NK depleted) mice, 1000 u day 7.5
# [3] = Expt 1, anti-asialoGM1 pretreated (NK depleted) mice, 2000 u day 7.5
# [4] = Expt 1, day 6.5 PBS, 1000 u ip day 7.5, day 13.5 assay
# [5] = Expt 1, day 6.5 PBS, 2000 u ip day 7.5, day 13.5 assay
# [6] = Table 9, 20 ng added to H5 cells + RV
# [7] = Table 9, 100 ng added to H5 cells + RV
# [8] = Table 9, 3 μg reconstituted into H5 cells
# [9] = Table 9, purified protein 3 μg alone
# [10] = Expt 2, anti-asialoGM1 pretreated (NK depleted) mice, 1000 u IFN-γ, TNF-α 1000 u or 2000 u pooled
# [11] = Expt 2, day 6.5 PBS, 1000 u IFN-γ, TNF-α 1000 u or 2000 u pooled, day 7.5
molecule,measurement,setting,value
TNF-α,% fetal losses,DBA/2-mated CBA/J mice; [2],16%^e
same,resorptions/total,DBA/2-mated CBA/J mice; [2],12/63
same,% fetal losses,DBA/2-mated CBA/J mice; [3],22%^e
same,resorptions/total,DBA/2-mated CBA/J mice; [3],12/55
same,% fetal losses,DBA/2-mated CBA/J mice; [4],72%^b
same,resorptions/total,DBA/2-mated CBA/J mice; [4],43/60
same,% fetal losses,DBA/2-mated CBA/J mice; [5],89%^c
same,resorptions/total,DBA/2-mated CBA/J mice; [5],57/64
"Purified protein: purified murine fg12 fusion protein with six histidine residues and an enterokinase site at the N-terminus, baculovirus expressed (protein, left off: small tags and cut ends, purified murine fg12 fusion protein with six histidine residues and an enterokinase site at the N-terminus, baculovirus expressed) VEEHNLTEGLEDASAQAACPARLEGSGRCEGSQCPFQLTLPTLTIQLPRQLGSMEEVLKEVRTLKEAVDSLKKSCQDCKLQADDHRDPGGNGGNGAETAEDSRVQELESQVNKLSSELKNAKDQIQGLQGRLETLHLVNMNNIENYVDNKVANLTVVVNSLDGKCSKCPSQEHMQSQPVQHLIYKDCSDHYVLGRRSSGAYRVTPDHRNSSFEVYCDMETMGGGWTVLQARLDGSTNFTREWKDYKAGFGNLEREFWLGNDKIHLLTKSKEMILRIDLEDFNGLTLYALYDQFYVANEFLKYRLHIGNYNGTAGDALRFSRHYNHDLRFFTTPDRDNDRYPSGNCGLYYSSGWWFDSCLSANLNGKYYHQKYKGVRNGIFWGTWPGINQAQPGGYKSSFKQAKMMIRPKNFKP",PCA,"[1]; Table 7, purified protein 3 μg, uninfected High 5 cells <1",<1 Miliunits/2 × 10^6 cells
same,PCA Time,"[1]; Table 7, purified protein 3 μg, uninfected High 5 cells >240",220 s
same,PCA Milliunits,[1]; [6],1254 mU/2 × 10^6 cells
same,PCA Time,[1]; [6],57 s
same,PCA Milliunits,[1]; [7],1543 mU/2 × 10^6 cells
same,PCA Time,[1]; [7],54 s
same,PCA Time,"[1]; Table 9, 3 μg added to H5 cells + RV (printed for two lines)",50 s and 34 s
same,PCA Milliunits,[1]; [8],3634 mU/2 × 10^6 cells
same,PCA Time,[1]; [8],42 s
same,PCA Milliunits,[1]; [9],<1 mU/2 × 10^6 cells
same,PCA Time,[1]; [9],220 s
same,PCA after reconstitution of purified protein into insect cells,[1]; preliminary results,partial PCA activity recovery
same,PCA detected,[1]; purified soluble protein alone,no activity
same,prevention of PCA expression by cells infected with recombinant virus,[1]; soluble mfg12 protein added to cell lysate,incapable of preventing the clotting induced by the cell lysate
same,cleavage of 125I-prothrombin (SDS-PAGE autoradiography),125I-prothrombin,no prothrombin cleavage
"IFN-γ: murine recombinant γ-interferon (protein, UniProt P01580 23-155, looked up) Interferon gamma: HGTVIESLESLNNYFNSSGIDVEEKSLFLDIWRNWQKDGDMKILQSQIISFYLRLFEVLKDNQAISNNISVIESHLITTFFSNSKAKKDAFMSIAKFEVNNPQVQRQAFNELIRVVHQLLPESSLRKRKRSRC",% fetal losses,DBA/2-mated CBA/J mice; [10],12%^e
same,resorptions/total,DBA/2-mated CBA/J mice; [10],12/98
same,% fetal losses,DBA/2-mated CBA/J mice; [11],85%^g
same,resorptions/total,DBA/2-mated CBA/J mice; [11],79/93

# Reference: US6805863B2, “Methods of modulating immune coagulation” (Trillium Therapeutics Inc., priority 1997, dated 2004)
